# IntAct's records for PubMed 16498409
# B1: ADP-ribosylation factor 1 (Saccharomyces cerevisiae), P11076 (parent)
# chain: MGLFASKLFSNLFGNKEMRILMVGLDGAGKTTVLYKLKLGEVITTIPTIGFNVETVQYKNISFTVWDVGGQDRIRSLWRHYYRNTEGVIFVVDSNDRSRIGEAREVMQRMLNEDELRNAAWLVFANKQDLPEAMSAAEITEKLGLHSIRNRPWFIQATCATSGEGLYEGLEWLSNSLKNST
# B2: ADP-ribosylation factor 1 (Saccharomyces cerevisiae), P11076 (parent)
# chain: B1 chain
# partner: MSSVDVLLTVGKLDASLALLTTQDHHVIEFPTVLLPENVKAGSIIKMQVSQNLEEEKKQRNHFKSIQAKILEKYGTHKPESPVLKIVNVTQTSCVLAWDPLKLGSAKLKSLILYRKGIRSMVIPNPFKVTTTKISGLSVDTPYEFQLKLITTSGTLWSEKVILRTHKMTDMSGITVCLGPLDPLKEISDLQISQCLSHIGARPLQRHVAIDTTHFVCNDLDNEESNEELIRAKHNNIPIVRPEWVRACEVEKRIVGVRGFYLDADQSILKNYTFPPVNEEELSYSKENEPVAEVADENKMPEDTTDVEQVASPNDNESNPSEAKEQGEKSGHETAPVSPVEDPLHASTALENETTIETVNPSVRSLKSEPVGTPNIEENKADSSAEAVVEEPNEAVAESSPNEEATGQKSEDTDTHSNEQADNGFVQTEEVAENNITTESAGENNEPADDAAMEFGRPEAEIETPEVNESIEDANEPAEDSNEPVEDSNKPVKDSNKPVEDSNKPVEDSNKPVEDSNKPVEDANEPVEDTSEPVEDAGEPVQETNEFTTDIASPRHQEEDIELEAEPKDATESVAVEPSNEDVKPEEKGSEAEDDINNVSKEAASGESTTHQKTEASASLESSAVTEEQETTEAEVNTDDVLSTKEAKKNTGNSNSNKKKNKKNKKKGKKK
# Variants of: B1
# Details: with glo3_yeast GLO3, P38682
# Chain of glo3_yeast GLO3, P38682 (P38682 whole entry): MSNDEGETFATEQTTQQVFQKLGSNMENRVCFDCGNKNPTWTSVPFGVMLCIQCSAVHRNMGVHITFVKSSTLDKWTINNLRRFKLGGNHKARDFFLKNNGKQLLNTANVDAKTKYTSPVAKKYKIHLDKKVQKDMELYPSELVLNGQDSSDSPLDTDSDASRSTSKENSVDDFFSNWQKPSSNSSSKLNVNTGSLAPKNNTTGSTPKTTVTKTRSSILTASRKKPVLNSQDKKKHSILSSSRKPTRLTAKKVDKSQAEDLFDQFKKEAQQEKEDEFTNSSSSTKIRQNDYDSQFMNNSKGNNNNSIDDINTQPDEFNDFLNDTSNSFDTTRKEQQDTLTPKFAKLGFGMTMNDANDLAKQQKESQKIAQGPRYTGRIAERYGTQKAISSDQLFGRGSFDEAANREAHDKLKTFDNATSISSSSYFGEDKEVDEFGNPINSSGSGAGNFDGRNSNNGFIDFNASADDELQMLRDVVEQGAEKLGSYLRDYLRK
row,Variant,effect of a mutation on the interaction
1,MGLFASKLFSNLFGNKEMRILMVGLDGAGKTTVLYKLKLGEVITTIPTIGFNVETVQYKNISFTVWDVGGLDRIRSLWRHYYRNTEGVIFVVDSNDRSRIGEAREVMQRMLNEDELRNAAWLVFANKQDLPEAMSAAEITEKLGLHSIRNRPWFIQATCATSGEGLYEGLEWLSNSLKNST [Q71L],increasing interaction

# Variants of: B2
# Details: with chs5_yeast CHS5, Q12114
row,Variant,effect of a mutation on the interaction
1,MGLFASKLFSNLFGNKEMRILMVGLDGAGKTTVLYKLKLGEVITTIPTIGFNVETVQYKNISFTVWDVGGLDRIRSLWRHYYRNTEGVIFVVDSNDRSRIGEAREVMQRMLNEDELRNAAWLVFANKQDLPEAMSAAEITEKLGLHSIRNRPWFIQATCATSGEGLYEGLEWLSNSLKNST [Q71L],increasing interaction
